# Measured values reported in IntAct's records for PubMed 31515488.
# B1: Transcription factor 12 (Homo sapiens), Q99081-3 (parent)
# chain: MNPQQQRMAAIGTDKELSDLLDFSAMFSPPVNSGKTRPTTLGSSQFSGSGIDERGGTTSWGTSGQPSPSYDSSRGFTDSPHYSDHLNDSRLGAHEGLSPTPFMNSNLMGKTSERGSFSLYSRDTGLPGCQSSLLRQDLGLGSPAQLSSSGKPGTAYYSFSATSSRRRPLHDSAALDPLQAKKVRKVPPGLPSSVYAPSPNSDDFNRESPSYPSPKPPTSMFASTFFMQDGTHNSSDLWSSSNGMSQPGFGGILGTSTSHMSQSSSYGNLHSHDRLSYPPHSVSPTDINTSLPPMSSFHRGSTSSSPYVAASHTPPINGSDSILGTRGNAAGSSQTGDALGKALASIYSPDHTSSSFPSNPSTPVGSPSPLTGTSQWPRPGGQAPSSPSYENSLHSLKNRVEQQLHEHLQDAMSFLKDVCEQSRMEDRLDRLDDAIHVLRNHAVGPSTSLPAGHSDIHSLLGPSHNAPIGSLNSNYGGSSLVASSRSASMVGTHREDSVSLNGNHSVLSSTVTTSSTDLNHKTQENYRGGLQSQSGTVVTTEIKTENKEKDENLHEPPSSDDMKSDDESSQKDIKVSSRGRTSSTNEDEDLNPEQKIEREKERRMANNARERLRVRDINEAFKELGRMCQLHLKSEKPQTKLLILHQAVAVILSLEQQVRERNLNPKAACLKRREEEKVSAVSAEPPTTLPGTHPGLSETTNPMGHM
# B2: Tuftelin-interacting protein 11 (Homo sapiens), Q9UBB9 (parent)
# chain: MSLSHLYRDGEGRIDDDDDERENFEITDWDLQNEFNPNRQRHWQTKEEATYGVWAERDSDDERPSFGGKRARDYSAPVNFISAGLKKGAAEEAELEDSDDEEKPVKQDDFPKDFGPRKLKTGGNFKPSQKGFAGGTKSFMDFGSWERHTKGIGQKLLQKMGYVPGRGLGKNAQGIINPIEAKQRKGKGAVGAYGSERTTQSMQDFPVVDSEEEAEEEFQKELSQWRKDPSGSKKKPKYSYKTVEELKAKGRISKKLTAPQKELSQVKVIDMTGREQKVYYSYSQISHKHNVPDDGLPLQSQQLPQSGKEAKAPGFALPELEHNLQLLIDLTEQEIIQNDRQLQYERDMVVNLFHELEKMTEVLDHEERVISNLSKVLEMVEECERRMQPDCSNPLTLDECARIFETLQDKYYEEYRMSDRVDLAVAIVYPLMKEYFKEWDPLKDCTYGTEIISKWKSLLENDQLLSHGGQDLSADAFHRLIWEVWMPFVRNIVTQWQPRNCDPMVDFLDSWVHIIPVWILDNILDQLIFPKLQKEVENWNPLTDTVPIHSWIHPWLPLMQARLEPLYSPIRSKLSSALQKWHPSDSSAKLILQPWKDVFTPGSWEAFMVKNIVPKLGMCLGELVINPHQQHMDAFYWVIDWEGMISVSSLVGLLEKHFFPKWLQVLCSWLSNSPNYEEITKWYLGWKSMFSDQVLAHPSVKDKFNEALDIMNRAVSSNVGAYMQPGARENIAYLTHTERRKDFQYEAMQERREAENMAQRGIGVAASSVPMNFKDLIETKAEEHNIVFMPVIGKRHEGKQLYTFGRIVIYIDRGVVFVQGEKTWVPTSLQSLIDMAK
# partner: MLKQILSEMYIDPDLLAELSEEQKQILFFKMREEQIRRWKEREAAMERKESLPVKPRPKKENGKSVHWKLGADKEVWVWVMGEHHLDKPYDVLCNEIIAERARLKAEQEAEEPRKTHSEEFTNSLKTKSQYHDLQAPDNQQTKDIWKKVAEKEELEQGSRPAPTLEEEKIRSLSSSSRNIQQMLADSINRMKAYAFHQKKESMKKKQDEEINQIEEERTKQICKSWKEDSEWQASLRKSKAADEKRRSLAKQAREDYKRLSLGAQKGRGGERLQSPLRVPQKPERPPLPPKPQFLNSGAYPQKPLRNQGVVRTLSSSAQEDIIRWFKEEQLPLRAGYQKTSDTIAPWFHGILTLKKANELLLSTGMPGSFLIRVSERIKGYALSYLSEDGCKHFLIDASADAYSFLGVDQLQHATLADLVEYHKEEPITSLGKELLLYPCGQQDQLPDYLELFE
# B3: Notch homolog 2 N-terminal-like protein A (Homo sapiens), Q7Z3S9 (parent)
# chain: MCVTYHNGTGYCKCPEGFLGEYCQHRDPCEKNRCQNGGTCVAQAMLGKATCRCASGFTGEDCQYSTSHPCFVSRPCLNGGTCHMLSRDTYECTCQVGFTGKECQWTDACLSHPCANGSTCTTVANQFSCKCLTGFTGQKCETDVNECDIPGHCQHGGTCLNLPGSYQCQCLQGFTGQYCDSLYVPCAPSPCVNGGTCRQTGDFTFECNCLPETVRRGTELWERDREVWNGKEHDEN
# partner: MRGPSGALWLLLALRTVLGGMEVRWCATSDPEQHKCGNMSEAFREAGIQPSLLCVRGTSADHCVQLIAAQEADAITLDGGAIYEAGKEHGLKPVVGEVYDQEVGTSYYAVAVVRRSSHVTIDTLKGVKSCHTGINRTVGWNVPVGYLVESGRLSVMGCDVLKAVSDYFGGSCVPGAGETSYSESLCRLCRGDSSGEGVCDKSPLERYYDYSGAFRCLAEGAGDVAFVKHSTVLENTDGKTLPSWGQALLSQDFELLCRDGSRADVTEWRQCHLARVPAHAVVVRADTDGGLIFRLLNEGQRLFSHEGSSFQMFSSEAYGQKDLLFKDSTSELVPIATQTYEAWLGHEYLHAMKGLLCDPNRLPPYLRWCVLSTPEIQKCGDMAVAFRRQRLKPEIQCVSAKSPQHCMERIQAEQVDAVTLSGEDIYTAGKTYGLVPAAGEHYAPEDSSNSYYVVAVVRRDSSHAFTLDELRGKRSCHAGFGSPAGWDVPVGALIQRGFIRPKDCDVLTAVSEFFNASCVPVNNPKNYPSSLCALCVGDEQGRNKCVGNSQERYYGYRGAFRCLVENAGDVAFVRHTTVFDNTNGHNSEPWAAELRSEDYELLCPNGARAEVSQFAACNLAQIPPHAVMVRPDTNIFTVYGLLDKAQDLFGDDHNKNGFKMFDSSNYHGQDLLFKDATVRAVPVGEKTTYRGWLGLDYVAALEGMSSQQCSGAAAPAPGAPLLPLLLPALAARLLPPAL
# B4: Adenylate kinase 8 (Homo sapiens), Q96MA6 (parent)
# chain: MDATIAPHRIPPEMPQYGEENHIFELMQNMLEQLLIHQPEDPIPFMIQHLHRDNDNVPRIVILGPPASGKTTIAMWLCKHLNSSLLTLENLILNEFSYTATEARRLYLQRKTVPSALLVQLIQERLAEEDCIKQGWILDGIPETREQALRIQTLGITPRHVIVLSAPDTVLIERNLGKRIDPQTGEIYHTTFDWPPESEIQNRLMVPEDISELETAQKLLEYHRNIVRVIPSYPKILKVISADQPCVDVFYQALTYVQSNHRTNAPFTPRVLLLGPVGSGKSLQAALLAQKYRLVNVCCGQLLKEAVADRTTFGELIQPFFEKEMAVPDSLLMKVLSQRLDQQDCIQKGWVLHGVPRDLDQAHLLNRLGYNPNRVFFLNVPFDSIMERLTLRRIDPVTGERYHLMYKPPPTMEIQARLLQNPKDAEEQVKLKMDLFYRNSADLEQLYGSAITLNGDQDPYTVFEYIESGIINPLPKKIP
# B5: Max-like protein X (Homo sapiens), Q9UH92 (parent)
# chain: MTEPGASPEDPWVKASPVGAHAGEGRAGRARARRGAGRRGASLLSPKSPTLSVPRGCREDSSHPACAKVEYAYSDNSLDPGLFVESTRKGSVVSRANSIGSTSASSVPNTDDEDSDYHQEAYKESYKDRRRRAHTQAEQKRRDAIKRGYDDLQTIVPTCQQQDFSIGSQKLSKAIVLQKTIDYIQFLHKEKKKQEEEVSTLRKDVTALKIMKVNYEQIVKAHQDNPHEGEDQVSDQVKFNVFQGIMDSLFQSFNASISVASFQELSACVFSWIEEHCKPQTLREIVIGVLHQLKNQLY
# B6: Four and a half LIM domains protein 2 (Homo sapiens), Q14192 (parent)
# chain: MTERFDCHHCNESLFGKKYILREESPYCVVCFETLFANTCEECGKPIGCDCKDLSYKDRHWHEACFHCSQCRNSLVDKPFAAKEDQLLCTDCYSNEYSSKCQECKKTIMPGTRKMEYKGSSWHETCFICHRCQQPIGTKSFIPKDNQNFCVPCYEKQHAMQCVQCKKPITTGGVTYREQPWHKECFVCTACRKQLSGQRFTARDDFAYCLNCFCDLYAKKCAGCTNPISGLGGTKYISFEERQWHNDCFNCKKCSLSLVGRGFLTERDDILCPDCGKDI
# partner: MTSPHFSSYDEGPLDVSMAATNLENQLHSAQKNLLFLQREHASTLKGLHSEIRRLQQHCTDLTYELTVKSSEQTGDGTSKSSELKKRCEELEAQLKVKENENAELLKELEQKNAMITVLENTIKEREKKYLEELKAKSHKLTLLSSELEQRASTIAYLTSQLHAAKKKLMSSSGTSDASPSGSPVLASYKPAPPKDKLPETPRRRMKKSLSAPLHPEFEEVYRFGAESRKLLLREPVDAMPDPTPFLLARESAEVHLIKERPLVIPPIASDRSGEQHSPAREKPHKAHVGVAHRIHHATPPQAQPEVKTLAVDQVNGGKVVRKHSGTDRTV
# B7: DCC-interacting protein 13-beta (Homo sapiens), Q8NEU8 (parent)
# chain: MPAVDKLLLEEALQDSPQTRSLLSVFEEDAGTLTDYTNQLLQAMQRVYGAQNEMCLATQQLSKQLLAYEKQNFALGKGDEEVISTLHYFSKVVDELNLLHTELAKQLADTMVLPIIQFREKDLTEVSTLKDLFGLASNEHDLSMAKYSRLPKKKENEKVKTEVGKEVAAARRKQHLSSLQYYCALNALQYRKQMAMMEPMIGFAHGQINFFKKGAEMFSKRMDSFLSSVADMVQSIQVELEAEAEKMRVSQQELLSVDESVYTPDSDVAAPQINRNLIQKAGYLNLRNKTGLVTTTWERLYFFTQGGNLMCQPRGAVAGGLIQDLDNCSVMAVDCEDRRYCFQITTPNGKSGIILQAESRKENEEWICAINNISRQIYLTDNPEAVAIKLNQTALQAVTPITSFGKKQESSCPSQNLKNSEMENENDKIVPKATASLPEAEELIAPGTPIQFDIVLPATEFLDQNRGSRRTNPFGETEDESFPEAEDSLLQQMFIVRFLGSMAVKTDSTTEVIYEAMRQVLAARAIHNIFRMTESHLMVTSQSLRLIDPQTQVSRANFELTSVTQFAAHQENKRLVGFVIRVPESTGEESLSTYIFESNSEGEKICYAINLGKEIIEVQKDPEALAQLMLSIPLTNDGKYVLLNDQPDDDDGNPNEHRGAESEA
# partner: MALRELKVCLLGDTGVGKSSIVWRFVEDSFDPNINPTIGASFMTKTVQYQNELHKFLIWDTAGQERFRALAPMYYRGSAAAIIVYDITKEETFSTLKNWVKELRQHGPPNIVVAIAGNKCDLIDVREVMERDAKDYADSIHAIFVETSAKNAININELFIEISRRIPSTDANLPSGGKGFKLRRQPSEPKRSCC
# B8: NAD kinase (Homo sapiens), O95544 (parent)
# chain: MEMEQEKMTMNKELSPDAAAYCCSACHGDETWSYNHPIRGRAKSRSLSASPALGSTKEFRRTRSLHGPCPVTTFGPKACVLQNPQTIMHIQDPASQRLTWNKSPKSVLVIKKMRDASLLQPFKELCTHLMEENMIVYVEKKVLEDPAIASDESFGAVKKKFCTFREDYDDISNQIDFIICLGGDGTLLYASSLFQGSVPPVMAFHLGSLGFLTPFSFENFQSQVTQVIEGNAAVVLRSRLKVRVVKELRGKKTAVHNGLGENGSQAAGLDMDVGKQAMQYQVLNEVVIDRGPSSYLSNVDVYLDGHLITTVQGDGVIVSTPTGSTAYAAAAGASMIHPNVPAIMITPICPHSLSFRPIVVPAGVELKIMLSPEARNTAWVSFDGRKRQEIRHGDSISITTSCYPLPSICVRDPVSDWFESLAQCLHWNVRKKQAHFEEEEEEEEEG
# partner: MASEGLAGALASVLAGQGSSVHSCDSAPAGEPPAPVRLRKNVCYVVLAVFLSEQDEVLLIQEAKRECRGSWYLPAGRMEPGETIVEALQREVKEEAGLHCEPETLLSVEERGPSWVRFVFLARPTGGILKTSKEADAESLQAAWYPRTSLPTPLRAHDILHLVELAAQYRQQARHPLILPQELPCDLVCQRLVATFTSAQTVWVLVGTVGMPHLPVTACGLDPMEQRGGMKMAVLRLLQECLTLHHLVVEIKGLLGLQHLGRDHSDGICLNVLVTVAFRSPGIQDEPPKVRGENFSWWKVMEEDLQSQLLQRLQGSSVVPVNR
# Variants of: B1
# Details: with cdn2c_human CDKN2C
row,Variant,effect of a mutation on the interaction
1,Y120C,with no effect

# Variants of: B1
# Details: with psa1_human PSMA1, P25786
# psa1_human PSMA1, P25786, sequence (P25786 whole entry): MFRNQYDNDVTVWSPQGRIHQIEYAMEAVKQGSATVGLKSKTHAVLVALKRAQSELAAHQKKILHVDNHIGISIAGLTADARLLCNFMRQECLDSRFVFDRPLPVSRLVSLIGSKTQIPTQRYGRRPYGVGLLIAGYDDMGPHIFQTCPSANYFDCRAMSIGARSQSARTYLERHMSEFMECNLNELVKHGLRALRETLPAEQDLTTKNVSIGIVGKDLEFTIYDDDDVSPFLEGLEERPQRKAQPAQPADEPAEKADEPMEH
row,Variant,effect of a mutation on the interaction
1,Y120C,with no effect

# Variants of: B2
# Details: with sh24a_human SH2D4A
row,Variant,effect of a mutation on the interaction
1,S688L,with no effect
2,R8Q,with no effect

# Variants of: B3
# Details: with trfm_human MELTF
row,Variant,effect of a mutation on the interaction
1,A115T,with no effect
2,R74Q,with no effect

# Variants of: B4
# Details: with mcm7_human MCM7, P33993
# mcm7_human MCM7, P33993, sequence (P33993 whole entry): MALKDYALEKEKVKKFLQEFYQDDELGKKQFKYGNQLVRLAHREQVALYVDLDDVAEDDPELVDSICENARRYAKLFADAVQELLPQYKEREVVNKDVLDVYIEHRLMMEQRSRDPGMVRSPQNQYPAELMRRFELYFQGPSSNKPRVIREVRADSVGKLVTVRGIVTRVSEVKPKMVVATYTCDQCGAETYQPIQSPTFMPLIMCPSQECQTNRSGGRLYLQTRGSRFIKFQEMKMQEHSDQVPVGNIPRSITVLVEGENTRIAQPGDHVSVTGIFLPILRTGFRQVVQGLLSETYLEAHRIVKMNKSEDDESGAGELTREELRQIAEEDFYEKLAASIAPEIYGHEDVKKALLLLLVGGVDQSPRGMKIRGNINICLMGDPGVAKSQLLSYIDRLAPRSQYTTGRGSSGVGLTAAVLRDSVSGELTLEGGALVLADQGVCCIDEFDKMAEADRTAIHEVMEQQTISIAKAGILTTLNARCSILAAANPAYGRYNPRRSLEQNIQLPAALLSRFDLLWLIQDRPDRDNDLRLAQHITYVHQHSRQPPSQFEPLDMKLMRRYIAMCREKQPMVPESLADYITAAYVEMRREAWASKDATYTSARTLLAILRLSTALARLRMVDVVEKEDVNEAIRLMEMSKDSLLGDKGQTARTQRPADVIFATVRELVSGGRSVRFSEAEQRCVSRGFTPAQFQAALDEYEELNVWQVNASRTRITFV
row,Variant,effect of a mutation on the interaction
1,V227I,with no effect
2,T169K,with no effect

# Variants of: B5
# Details: with gbrl2_human GABARAPL2, P60520
# gbrl2_human GABARAPL2, P60520, sequence (P60520 whole entry): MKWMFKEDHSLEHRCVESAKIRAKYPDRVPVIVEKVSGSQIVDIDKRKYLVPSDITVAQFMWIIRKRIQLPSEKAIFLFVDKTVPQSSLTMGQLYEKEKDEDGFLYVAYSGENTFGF
row,Variant,effect of a mutation on the interaction
1,Q223R,with no effect

# Variants of: B6
# Details: with ccd92_human CCDC92, Q53HC0
row,Variant,effect of a mutation on the interaction
1,A37S,with no effect
2,N95K,with no effect

# Variants of: B7
# Details: with rb22a_human RAB22A
row,Variant,effect of a mutation on the interaction
1,K70R,with no effect

# Variants of: B8
# Details: with nud18_human NUDT18, Q6ZVK8
row,Variant,effect of a mutation on the interaction
1,R249W,with no effect
